Publication doi:10.1101/2021.12.02.470928

Assays:
Test in all cases: BLI
[1] = target: biotinylated MYC(1-88ΔMB0) (UniProt P01106)
[2] = target: biotinylated MYC(1-88 F23A)
[3] = target: biotinyl-MB0 peptide (MYC 16-33) (UniProt P01106)
[4] = target: biotinylated MYC(1-88 Y24A)
[5] = target: biotinylated MYC(1-88 P21A)
[6] = target: biotinylated MYC(1-88 Y22A)

B1: PNUTS(1-148), PNUTS amino-terminal domain (PAD) (domain or fragment)
chain: MGSGPIDPKELLKGLDSFLNRDGEVKSVDGISKIFSLMKEARKMVSRCTYLNILLQTRSPEILVKFIDVGGYKLLNNWLTYSKTTNNIPLLQQILLTLQHLPLTVDHLKQNNTAKLVKQLSKSSEDEELRKLASVLVSDWMAVIRSQS
- Kd [1]: > 100 µM
- fold weakening of KD against wild-type MYC(1-88) [2]: > 5 fold
- Kd [3]: 9.4 µM
- fold weakening of KD against wild-type MYC(1-88) [4]: > 5 fold
- fold weakening of KD against wild-type MYC(1-88) [5]: > 5 fold
- fold weakening of KD against wild-type MYC(1-88) [6]: > 5 fold
